Laboratory results from patent US11891634B2, “PDE5A destabilizing domains” (The Board of Trustees of the Leland Stanford Junior …, priority 2017, dated 2024).

Experiments:
[1] = tested on: HCT 116 cells transduced with the PDE5A DD derived GFP constructs; assay: Response to Vardenafil, GFP expression by FACS in HCT116; type: cell-based, human; details: for MFI / Stabilization ratio with Vardenafil: 48 hours, HCT116
Description: Mutations were created in PDE5A (535-860) catalytic domain using site directed mutagenesis and the mutants were cloned as AcGFP fusion into pELNS vector carrying mCherry marker and packaged in lentiviral vectors. HCT116 cells were transduced with the constructs and stable integrants were selected by cell sorting using mCherry marker. Cells were treated with vehicle (dimethyl sulfoxide, DMSO) or 10 μM Vardenafil (VDF) for 48 hours. Following the treatment, cells were analyzed for GFP expression using FACS. Basal expression was calculated as the ratio of GFP signal in the absence of ligand for a given cell line to auto fluorescence of parental HCT-116 cells. Stabilization ratio was calculated as the ratio of the GFP signal observed in the presence of stabilizing ligand to the signal from the same cell line in the absence of ligand.
HCT 116 cells transduced with the PDE5A DD derived GFP constructs were also tested with increasing doses of Vardenafil. The HCT116 cells were incubated for 48 hours with Vardenafil starting at a dose of 0.002 μM to 30 μM. The GFP intensity of the Vardenafil treated samples was compared to the parental untransduced HCT116 and DMSO treated cells for each construct. The mean fluorescence intensity was calculated for each sample and used to calculate the stabilization ratios as well as the basal expression for each construct. The GFP expression was measured using flow cytometry and the mean fluorescence intensity (MFI) was calculated for each sample. The stabilization ratios are shown in Table 13 and Table 14 and the basal expression is show in Table 15.

[2] = tested on: HCT116 cells transduced with the constructs; assay: Response to Sildenafil, GFP expression by flow cytometry in HCT116; type: cell-based, human; details: for MFI / Stabilization ratio with Sildenafil: 48 hours, HCT116
Description: Similar experiments were performed in HCT116 cells using sildenafil. The above-mentioned DDs were cloned as AcGFP fusion into pELNS vector carrying mCherry marker and packaged in lentiviral vectors. HCT116 cells were transduced with the constructs and stable integrants were selected by cell sorting using mCherry marker. Cells were treated with sildenafil at the following μM concentrations: 0.01, 0.02, 0.05, 0.14, 0.41, 1.23, 3.7, 11.11, 33.33, and 100 for a duration of 48 hours. The fluorescence was analyzed by flow cytometry and the mean fluorescence intensity was calculated for all samples. […] The stabilization ratios are shown in Table 24 and Table 25 and the basal expression is show in Table 26.

B1: PDE5AC (#42): AcGFP fused to C-terminal DD 535-860 of PDE5A (E535D, K555R, F564S, Q589R, K630R, C677R, N742S, I799T, M816A), SEQ ID NO. 28 (protein)
chain: DETRELQSLAAAVVPSAQTLRITDFSFSDSELSDLETALCTIRMFTDLNLVQNFRMKHEVLCRWILSVKKNYRKNVAYHNWRHAFNTAQCMFAALRAGKIQNKLTDLEILALLIAALSHDLDHRGVNNSYIQRSEHPLAQLYRHSIMEHHHFDQCLMILNSPGNQILSGLSIEEYKTTLKIIKQAILATDLALYIKRRGEFFELIRKSQFNLEDPHQKELFLAMLMTACDLSAITKPWPIQQRIAELVATEFFDQGDRERKELNTEPTDLMNREKKNKIPSAQVGFIDAICLQLYEALTHVSEDCFPLLDGCRKNRQKWQALAEQQ
modifications: /note=“Description of Artificial Sequence Synthetic Destabilizing Domain (DD)”
**Q.** B1 was tested. Which MFI ([1]; DMSO (no Vardenafil)) did it give?
**A.** 25111

**Q.** What about the “Basal (DMSO/Parental)” value ([1]; Table 10, GFP signal without ligand / auto fluorescence of parental HCT-116) of the same molecule?
**A.** 20.0

**Q.** And the Basal ([1]; Table 15, MFI with DMSO / parental HCT116, Vardenafil experiment)?
**A.** 12.85

**Q.** And the “Stabilization ratio with Vardenafil” value ([1]; Vardenafil 0.002 μM vs DMSO)?
**A.** 1.0

**Q.** What about the MFI ([1]; Vardenafil 0.002 μM) of the same molecule?
**A.** 25236

**Q.** What about the MFI ([1]; Vardenafil 0.005 μM) of the same molecule?
**A.** 28309

**Q.** What about the “Stabilization ratio with Vardenafil” value ([1]; Vardenafil 0.014 μM vs DMSO) of the same molecule?
**A.** 1.4

**Q.** What about the MFI ([1]; Vardenafil 0.014 μM) of the same molecule?
**A.** 33958

**Q.** What about the “Stabilization ratio with Vardenafil” value ([1]; Vardenafil 0.041 μM vs DMSO) of the same molecule?
**A.** 1.9

**Q.** What about the MFI ([1]; Vardenafil 0.041 μM) of the same molecule?
**A.** 46882

**Q.** What about the “Stabilization ratio with Vardenafil” value ([1]; Vardenafil 0.123 μM vs DMSO) of the same molecule?
**A.** 3.2

**Q.** And the MFI ([1]; Vardenafil 0.123 μM)?
**A.** 81233

**Q.** What about the “Stabilization ratio with Vardenafil” value ([1]; Vardenafil 0.370 μM vs DMSO) of the same molecule?
**A.** 4.6

**Q.** And the MFI ([1]; Vardenafil 0.370 μM)?
**A.** 114847

**Q.** And the “Stabilization ratio with Vardenafil” value ([1]; Vardenafil 1.111 μM vs DMSO)?
**A.** 5.4

**Q.** What about the MFI ([1]; Vardenafil 1.111 μM) of the same molecule?
**A.** 136303

**Q.** And the “Stabilization ratio with Vardenafil” value ([1]; Vardenafil 3.333 μM vs DMSO)?
**A.** 5.9

**Q.** What about the MFI ([1]; Vardenafil 3.333 μM) of the same molecule?
**A.** 147512

**Q.** And the “Stabilization ratio with Vardenafil” value ([1]; Vardenafil 10 μM vs DMSO)?
**A.** 6.4

**Q.** What about the MFI ([1]; Vardenafil 10 μM) of the same molecule?
**A.** 161587

**Q.** What about the “Stabilization ratio with Vardenafil” value ([1]; Vardenafil 30 μM vs DMSO) of the same molecule?
**A.** 8.0

**Q.** What about the MFI ([1]; Vardenafil 30 μM) of the same molecule?
**A.** 199877

**Q.** What about the MFI ([2]; DMSO (no Sildenafil)) of the same molecule?
**A.** 23943

**Q.** What about the “Stabilization ratio with Sildenafil” value ([2]; Sildenafil 0.01 μM vs DMSO) of the same molecule?
**A.** 1.0

**Q.** And the MFI ([2]; Sildenafil 0.01 μM)?
**A.** 23295

**Q.** And the “Stabilization ratio with Sildenafil” value ([2]; Sildenafil 0.02 μM vs DMSO)?
**A.** 1.0

**Q.** And the MFI ([2]; Sildenafil 0.02 μM)?
**A.** 23606

**Q.** What about the “Stabilization ratio with Sildenafil” value ([2]; Sildenafil 0.05 μM vs DMSO) of the same molecule?
**A.** 1.0

**Q.** What about the MFI ([2]; Sildenafil 0.05 μM) of the same molecule?
**A.** 24817

**Q.** What about the “Stabilization ratio with Sildenafil” value ([2]; Sildenafil 0.14 μM vs DMSO) of the same molecule?
**A.** 1.2

**Q.** And the MFI ([2]; Sildenafil 0.14 μM)?
**A.** 29495

**Q.** What about the “Stabilization ratio with Sildenafil” value ([2]; Sildenafil 0.41 μM vs DMSO) of the same molecule?
**A.** 1.7

**Q.** And the MFI ([2]; Sildenafil 0.41 μM)?
**A.** 40817

**Q.** And the “Stabilization ratio with Sildenafil” value ([2]; Sildenafil 1.23 μM vs DMSO)?
**A.** 2.6

**Q.** What about the MFI ([2]; Sildenafil 1.23 μM) of the same molecule?
**A.** 63410

**Q.** What about the “Stabilization ratio with Sildenafil” value ([2]; Sildenafil 3.70 μM vs DMSO) of the same molecule?
**A.** 3.8

**Q.** And the MFI ([2]; Sildenafil 3.70 μM)?
**A.** 91798

**Q.** And the “Stabilization ratio with Sildenafil” value ([2]; Sildenafil 11.11 μM vs DMSO)?
**A.** 5.3

**Q.** And the MFI ([2]; Sildenafil 11.11 μM)?
**A.** 127187

**Q.** And the “Stabilization ratio with Sildenafil” value ([2]; Sildenafil 33.33 μM vs DMSO)?
**A.** 6.3

**Q.** What about the MFI ([2]; Sildenafil 33.33 μM) of the same molecule?
**A.** 149906

**Q.** And the “Stabilization ratio with Sildenafil” value ([2]; Sildenafil 100.00 μM vs DMSO)?
**A.** 6.9

**Q.** What about the MFI ([2]; Sildenafil 100.00 μM) of the same molecule?
**A.** 164269

**Q.** And the Basal expression ([2]; Table 26, MFI with DMSO / parental HCT116, Sildenafil experiment)?
**A.** 18.6
